Publication PMC8667318

Target: Recombinant human MCHR1 Protein (human) (UniProt Q99705)
Assay: SPR; Biacore T200, CM5 chip, 25°C; MCHR1 immobilised by amine coupling (~5500 RU); PDGF-BB as analyte 100 nM to 3.125 nM; PBS-P (20 mM phosphate pH 7.4, 137 mM NaCl, 2.7 mM KCl, 0.05% P20); 1:1 kinetics model fitting

UniProt Q99705, sequence (Q99705 whole entry): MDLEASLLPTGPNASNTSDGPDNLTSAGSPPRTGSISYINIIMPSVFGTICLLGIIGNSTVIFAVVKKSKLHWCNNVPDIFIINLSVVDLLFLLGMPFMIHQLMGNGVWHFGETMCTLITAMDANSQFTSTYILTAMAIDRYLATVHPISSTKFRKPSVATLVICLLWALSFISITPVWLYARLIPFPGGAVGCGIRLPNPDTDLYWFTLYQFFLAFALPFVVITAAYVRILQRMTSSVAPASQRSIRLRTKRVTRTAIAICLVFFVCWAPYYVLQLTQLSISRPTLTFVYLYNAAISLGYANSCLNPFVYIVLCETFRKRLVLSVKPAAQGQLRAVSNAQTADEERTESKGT

- Kd: 46.6 nM
Substance: Recombinant human PDGF-BB (from UniProt P01127 82-190) (ligand)
